# Measurements taken from article PMC10570377, “DARPins detect the formation of hetero-tetramers of p63 and p73 in epithelial tissues and in squamous cell carcinoma” (Cell Death & Disease, 2023).
# Where a chain is given by its changes, count along the chain named. Names may count otherwise.
# B1: p63 oligomerization domain (OD), homo-tetramer (domain or fragment)
# chain: DDELLYLPVRGRETYEMLLKIKESLELMQYLPQHTIETYRQQQQQQHQHLLQKQTSIQS
# notes: p63 oligomerization domain (OD), wild type; also called p63 OD; p63 homo-OD; source: E. coli, purified; not shown: His10, N-terminal, cleaved
# B2: p73 oligomerization domain (OD), homo-tetramer (domain or fragment)
# chain: DEDTYYLQVRGRENFEILMKLKESLELMELVPQPLVDSYRQQQQLLQR
# notes: p73 oligomerization domain (OD), wild type; 15N-labelled on lysine for NMR; also called p73 OD; p73 homo-OD; source: E. coli, purified; not shown: His10, N-terminal, cleaved
# B3: p73 oligomerization domain E363K (domain or fragment, UniProt O15350 351-398, looked up)
# chain: B2 chain with E13K
# notes: p73 oligomerization domain (OD), amino acids 351-398, E363K; The p73 chain of m3; also called p73 (amino acids 351–398, E363K); p73 OD E363K; source: E. coli BL21(DE3) Rosetta, purified; not shown: His10, N-terminal, cleaved
# What was measured:
# [1] = target: the molecule itself; test: crystal structure; complexes of OD hetero-tetramer and DARPin mixed 1:2, isolated by SEC, sitting drop at 20 °C
# [2] = target: B1; test: NMR titration; [15N,1H] BEST-TROSY spectra at 25 °C; equimolar mixture of unlabelled p63 OD and 15N-Lys-labelled p73 OD, DARPin added at one ratio (2.4:1); 20 mM K2HPO4 pH 7.8, 100 mM KCl, 0.5 mM EDTA; conditions: both partners purified
binding result [2],Binder,binding result [1]
,B1,binds
binds,B2,binds
,B3,binds
